The text below walks through data of article PMC4565553.

Common to all, as to assay: BLI; label-free in vitro kinetics assay; FLAG-tagged IPS1 CARD (2.5 μg/mL) immobilised on anti-FLAG probes; RLR CARDs at 0.001–100 μM in 1x Kinetics Buffer (ForteBio) with BSA, pH 7.0; 60 min association, 60 min dissociation; Kd = half-maximal steady-state binding, Km = half-maximal initial binding rate, one-site fit, 3 replicates; no ubiquitin
Assay [1] deals with B. floridae IPS1 CARD (Branchiostoma floridae).
The target in assay [2] is human IPS1 CARD (1–92), FLAG-tagged (human) (UniProt Q7Z434).
Assay [3] deals with mutant human IPS1 CARD (Arg66,67—Glu), FLAG-tagged (human) (UniProt Q7Z434).

On to “B. floridae RIG-I CARD1+2 (domain or fragment)”, for which, in assay [1], the fold lower Kd than the negative control (human CASP9 CARD) was 5.4 fold and the fold lower Km than the negative control (human CASP9 CARD) was 6.1 fold.

B1: human MDA5 CARD1 (1–96) (domain or fragment)
chain: MSNGYSTDENFRYLISCFRARVKMYIQVEPVLDYLTFLPAEVKEQIQRTVATSGNMQAVELLLSTLEKGVWHLGWTREFVEALRRTGSPLAARYMN
For B1, in assay [2], the Kd worked out at 813 nM and the Km (half-maximal initial binding rate) was 550 nM.

B2: human RIG-I CARD1 (1–87) (domain or fragment)
chain: MTTEQRRSLQAFQDYIRKTLDPTYILSYMAPWFREEEVQYIQAEKNNKGPMEAATLFLKFLLELQEEGWFRGFLDALDHAGYSGLYE
In assay [3], B2 showed a fold increase in Kd against wild-type IPS1 CARD of 34.6 fold and a fold increase in Km against wild-type IPS1 CARD of 43.8 fold. Moreover, in assay [2], the Kd turned out to be 33.1 nM, the Km (half-maximal initial binding rate) came out at 38.9 nM and the fold stronger binding than human caspase9 CARD (negative control) amounted to 70 fold.

B3: mutant human RIG-I CARD1 (Glu66,67—Arg) (domain or fragment)
chain: MTTEQRRSLQAFQDYIRKTLDPTYILSYMAPWFREEEVQYIQAEKNNKGPMEAATLFLKFLLELQRRGWFRGFLDALDHAGYSGLYE
For B3, in assay [2], the fold increase in Kd against wild-type RIG-I CARD1 is 10 fold and the fold increase in Km against wild-type RIG-I CARD1 is 6.9 fold.
